Measured values taken from paper doi:10.1101/2024.01.24.577054 (bioRxiv, 2024).

Target: the molecule itself
Assay: FRET or BRET

B1: BmrA, homodimeric multi-drug resistance ABC exporter from B. subtilis (His-C-ter-BmrA), labelled with sulfo-Cy3/sulfo-Cy5 (natural protein, UniProt O06967 1-589, looked up)
chain: MPTKKQKSKSKLKPFFALVRRTNPSYGKLAFALALSVVTTLVSLLIPLLTKQLVDGFSMSNLSGTQIGLIALVFFVQAGLSAYATYALNYNGQKIISGLRELLWKKLIKLPVSYFDTNASGETVSRVTNDTMVVKELITTHISGFITGIISVIGSLTILFIMNWKLTLLVLVVVPLAALILVPIGRKMFSISRETQDETARFTGLLNQILPEIRLVKASNAEDVEYGRGKMGISSLFKLGVREAKVQSLVGPLISLVLMAALVAVIGYGGMQVSSGELTAGALVAFILYLFQIIMPMGQITTFFTQLQKSIGATERMIEILAEEEEDTVTGKQIENAHLPIQLDRVSFGYKPDQLILKEVSAVIEAGKVTAIVGPSGGGKTTLFKLLERFYSPTAGTIRLGDEPVDTYSLESWREHIGYVSQESPLMSGTIRENICYGLERDVTDAEIEKAAEMAYALNFIKELPNQFDTEVGERGIMLSGGQRQRIAIARALLRNPSILMLDEATSSLDSQSEKSVQQALEVLMEGRTTIVIAHRLSTVVDADQLLFVEKGEITGRGTHHELMASHGLYRDFAEQQLKMNADLENKAG
modifications: sulfo-Cy3 or sulfo-Cy5 maleimide dye on C436 (the sole Cys residue of each monomer)
- binding result: binds
